Reference: article PMC8319318 (2021)

Target: actin filament (skeletal muscle actin) (Oryctolagus cuniculus, UniProt P68135)
Experiment: TIRF microscopy (steady-state fluorescence density)

Kd: 7.82 nM
B1: anillin (protein)
chain: MDPFTEKLLERTRARRENLQRKMAERPTAAPRSMTHAKRARQPLSEASNQQPLSGGEEKSCTKPSPSKKRCSDNTEVEVSNLENKQPVESTSAKSCSPSPVSPQVQPQAADTISDSVAVPASLLGMRRGLNSRLEATAASSVKTRMQKLAEQRRRWDNDDMTDDIPESSLFSPMPSEEKAASPPRPLLSNASATPVGRRGRLANLAATICSWEDDVNHSFAKQNSVQEQPGTACLSKFSSASGASARINSSSVKQEATFCSQRDGDASLNKALSSSADDASLVNASISSSVKATSPVKSTTSITDAKSCEGQNPELLPKTPISPLKTGVSKPIVKSTLSQTVPSKGELSREICLQSQSKDKSTTPGGTGIKPFLERFGERCQEHSKESPARSTPHRTPIITPNTKAIQERLFKQDTSSSTTHLAQQLKQERQKELACLRGRFDKGNIWSAEKGGNSKSKQLETKQETHCQSTPLKKHQGVSKTQSLPVTEKVTENQIPAKNSSTEPKGFTECEMTKSSPLKITLFLEEDKSLKVTSDPKVEQKIEVIREIEMSVDDDDINSSKVINDLFSDVLEEGELDMEKSQEEMDQALAESSEEQEDALNISSMSLLAPLAQTVGVVSPESLVSTPRLELKDTSRSDESPKPGKFQRTRVPRAESGDSLGSEDRDLLYSIDAYRSQRFKETERPSIKQVIVRKEDVTSKLDEKNNAFPCQVNIKQKMQELNNEINMQQTVIYQASQALNCCVDEEHGKGSLEEAEAERLLLIATGKRTLLIDELNKLKNEGPQRKNKASPQSEFMPSKGSVTLSEIRLPLKADFVCSTVQKPDAANYYYLIILKAGAENMVATPLASTSNSLNGDALTFTTTFTLQDVSNDFEINIEVYSLVQKKDPSGLDKKKKTSKSKAITPKRLLTSITTKSNIHSSVMASPGGLSAVRTSNFALVGSYTLSLSSVGNTKFVLDKVPFLSSLEGHIYLKIKCQVNSSVEERGFLTIFEDVSGFGAWHRRWCVLSGNCISYWTYPDDEKRKNPIGRINLANCTSRQIEPANREFCARRNTFELITVRPQREDDRETLVSQCRDTLCVTKNWLSADTKEERDLWMQKLNQVLVDIRLWQPDACYKPIGKP
modifications: anillin C-terminal GFP tag; F-actin stabilised with biotin-phalloidin
